Assay results published in PMC4882005, “Functional Cooperativity between ABCG4 and ABCG1 Isoforms” (PLoS ONE, 2016).

Target: GFP-ABCG4 (UniProt Q9H172-1 1-646)
Experiment: co-IP; HEK293 co-transfected with the GFP-tagged and the untagged protein (untagged in excess), lysed 24 h after transfection in 50 mM Tris pH 7.4, 150 mM NaCl, 0.5% NP-40; precipitated with anti-GFP on protein G-sepharose, 2 h at 4°C; Western blot of the precipitate
Conditions: partners not purified

Sequence of GFP-ABCG4 (Q9H172 whole entry): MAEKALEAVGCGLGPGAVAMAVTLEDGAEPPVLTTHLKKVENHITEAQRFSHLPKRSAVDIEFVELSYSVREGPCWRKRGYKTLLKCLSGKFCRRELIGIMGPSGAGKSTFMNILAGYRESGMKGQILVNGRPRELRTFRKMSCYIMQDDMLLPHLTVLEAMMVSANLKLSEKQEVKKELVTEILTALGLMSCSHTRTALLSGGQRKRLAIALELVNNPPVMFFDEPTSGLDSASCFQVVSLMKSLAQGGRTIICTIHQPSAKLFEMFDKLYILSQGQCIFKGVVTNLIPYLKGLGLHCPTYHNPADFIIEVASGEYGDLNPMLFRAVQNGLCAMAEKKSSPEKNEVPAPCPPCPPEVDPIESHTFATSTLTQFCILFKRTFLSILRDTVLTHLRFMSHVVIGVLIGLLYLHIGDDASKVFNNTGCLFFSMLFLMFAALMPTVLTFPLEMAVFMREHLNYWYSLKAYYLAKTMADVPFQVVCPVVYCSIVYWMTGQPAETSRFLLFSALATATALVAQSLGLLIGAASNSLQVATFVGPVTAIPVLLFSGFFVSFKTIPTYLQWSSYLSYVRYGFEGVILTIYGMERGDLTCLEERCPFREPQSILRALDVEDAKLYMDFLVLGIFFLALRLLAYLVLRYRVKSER

B1: ABCG4 (wild type, untagged) (natural protein)
chain: not shown
notes: the whole cDNA was probably expressed; also called wt ABCG4; source: HEK293, transfected (Fugene HD), in lysate
With B1 the “stoichiometry N” value was ~1.
